Data reported in PMC7850899, “Nutrient transceptors physically interact with the yeast S6/protein kinase B homolog, Sch9, a TOR kinase target” (Biochemical Journal, 2021).

B1: GST-tagged Sch9 (GST-Sch9) [S. cerevisiae] / HA-tagged wild type Gap1 (HA-Gap1) [S. cerevisiae] (parent complex)
chain 1: MMNFFTSKSSNQDTGFSSQHQHPNGQNNGNNNSSTAGNDNGYPCKLVSSGPCASSNNGALFTNFTLQTATPTTAISQDLYAMGTTGITSENALFQMKSMNNGISSVNNNNSNTPTIITTSQEETNAGNVHGDTGGNSLQNSEDDNFSSSSTTKCLLSSTSSLSINQREAAAAAYGPDTDIPRGKLEVTIIEARDLVTRSKDSQPYVVCTFESSEFISNGPESLGAINNNNNNNNNNQHNQNQHINNNNENTNPDAASQHHNNNSGWNGSQLPSIKEHLKKKPLYTHRSSSQLDQLNSCSSVTDPSKRSSNSSSGSSNGPKNDSSHPIWHHKTTFDVLGSHSELDISVYDAAHDHMFLGQVRLYPMIHNLAHASQHQWHSLKPRVIDEVVSGDILIKWTYKQTKKRHYGPQDFEVLRLLGKGTFGQVYQVKKKDTQRIYAMKVLSKKVIVKKNEIAHTIGERNILVTTASKSSPFIVGLKFSFQTPTDLYLVTDYMSGGELFWHLQKEGRFSEDRAKFYIAELVLALEHLHDNDIVYRDLKPENILLDANGNIALCDFGLSKADLKDRTNTFCGTTEYLAPELLLDETGYTKMVDFWSLGVLIFEMCCGWSPFFAENNQKMYQKIAFGKVKFPRDVLSQEGRSFVKGLLNRNPKHRLGAIDDGRELRAHPFFADIDWEALKQKKIPPPFKPHLVSETDTSNFDPEFTTASTSYMNKHQPMMTATPLSPAMQAKFAGFTFVDESAIDEHVNNNRKFLQNSYFMEPGSFIPGNPNLPPDEDVIDDDGDEDINDGFNQEKNMNNSHSQMDFDGDQHMDDEFVSGRFEI
chain 2: MSNTSSYEKNNPDNLKHNGITIDSEFLTQEPITIPSNGSAVSIDETGSGSKWQDFKDSFKRVKPIEVDPNLSEAEKVAIITAQTPLKHHLKNRHLQMIAIGGAIGTGLLVGSGTALRTGGPASLLIGWGSTGTMIYAMVMALGELAVIFPISGGFTTYATRFIDESFGYANNFNYMLQWLVVLPLEIVSASITVNFWGTDPKYRDGFVALFWLAIVIINMFGVKGYGEAEFVFSFIKVITVVGFIILGIILNCGGGPTGGYIGGKYWHDPGAFAGDTPGAKFKGVCSVFVTAAFSFAGSELVGLAASESVEPRKSVPKAAKQVFWRITLFYILSLLMIGLLVPYNDKSLIGASSVDAAASPFVIAIKTHGIKGLPSVVNVVILIAVLSVGNSAIYACSRTMVALAEQRFLPEIFSYVDRKGRPLVGIAVTSAFGLIAFVAASKKEGEVFNWLLALSGLSSLFTWGGICICHIRFRKALAAQGRGLDELSFKSPTGVWGSYWGLFMVIIMFIAQFYVAVFPVGDSPSAEGFFEAYLSFPLVMVMYIGHKIYKRNWKLFIPAEKMDIDTGRREVDLDLLKQEIAEEKAIMATKPRWYRIWNFWC
B2: GST-tagged Sch9 (GST-Sch9) [S. cerevisiae] / Gap1 peptide 222-GVKGYGEAEFVFSFI-236 [S. cerevisiae] (parent complex)
chain 1: B1 chain 1
chain 2: GVKGYGEAEFVFSFI

Variants of: B1
Assay: GST pull-down assay; parent: 100

percent of parent	Variant
86.9 % of Gap1WT	chain 2 V232K
102 % of Gap1WT	chain 2 F231D, chain 2 V232K, chain 2 F233D
98.9 % of Gap1WT	chain 2 F231D
138 % of Gap1WT	chain 2 F233D

Variants of: B2
Assay: substitution peptide microarray; 100 or 500 µg/ml GST-Sch9; parent: 100; read off a plot

percent of parent	Variant
~330 % of wild type peptide	chain 2 G6F
~240 % of wild type peptide	chain 2 S13C
~150 % of wild type peptide	chain 2 I15E
~140 % of wild type peptide	chain 2 G1F
